Test results as given in US20080015137A1.
pKd: −log10 of the molar value.

These substances were tested against Karyopherin beta2 (Kapβ2), full length, wild type (human) (UniProt Q92973) (assay: ITC; MBP-M9NLS(257-305) mutant titrated into full length Kapβ2).
Chain of Karyopherin beta2 (Kapβ2), full length, wild type (human) (Q92973 9-898 limits assumed): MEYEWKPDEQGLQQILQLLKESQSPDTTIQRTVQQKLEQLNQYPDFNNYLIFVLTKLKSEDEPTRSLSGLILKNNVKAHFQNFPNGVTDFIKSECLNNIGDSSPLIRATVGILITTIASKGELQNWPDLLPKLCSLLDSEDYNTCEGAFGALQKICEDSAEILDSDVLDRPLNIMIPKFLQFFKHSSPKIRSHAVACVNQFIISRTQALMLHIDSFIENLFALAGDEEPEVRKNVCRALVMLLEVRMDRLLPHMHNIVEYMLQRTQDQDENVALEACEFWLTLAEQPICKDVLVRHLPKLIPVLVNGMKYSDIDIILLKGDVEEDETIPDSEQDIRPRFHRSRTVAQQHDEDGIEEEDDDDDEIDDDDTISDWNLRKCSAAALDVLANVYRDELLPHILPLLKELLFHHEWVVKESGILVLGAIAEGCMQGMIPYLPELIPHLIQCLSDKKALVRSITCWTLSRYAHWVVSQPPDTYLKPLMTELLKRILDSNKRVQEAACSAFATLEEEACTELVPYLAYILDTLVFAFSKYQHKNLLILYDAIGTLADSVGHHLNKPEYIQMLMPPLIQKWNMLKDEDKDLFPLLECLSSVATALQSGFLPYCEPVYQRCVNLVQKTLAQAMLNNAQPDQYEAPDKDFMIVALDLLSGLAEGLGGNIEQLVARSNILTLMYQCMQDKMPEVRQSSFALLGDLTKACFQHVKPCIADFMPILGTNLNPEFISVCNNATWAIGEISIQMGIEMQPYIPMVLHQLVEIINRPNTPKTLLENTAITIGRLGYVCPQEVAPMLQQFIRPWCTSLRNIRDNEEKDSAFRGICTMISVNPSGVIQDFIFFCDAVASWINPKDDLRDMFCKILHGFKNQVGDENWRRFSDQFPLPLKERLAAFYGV

Question: With “MBP-M9NLS(257-305) P275A (from UniProt P09651 257-305)” as the substance, how does the pKd read?
Answer: Its pKd is 7.13.

Question: “MBP-M9NLS(257-305) F273A (from UniProt P09651 257-305)” was tested. Which pKd did it give?
Answer: Its pKd is 7.21.

Question: With “MBP-M9NLS(257-305) M276A (from UniProt P09651 257-305)” as the substance, how does the pKd read?
Answer: Its pKd is 7.08.

Question: How did the pKd turn out when “MBP-M9NLS(257-305) P288A (from UniProt P09651 257-305)” was run?
Answer: The pKd was 6.80.

Question: “MBP-M9NLS(257-305) F281A (from UniProt P09651 257-305)” was tested. Which pKd did it give?
Answer: Its pKd is 7.25.

Question: With “MBP-M9NLS(257-305) G274A/P288A/Y289A (from UniProt P09651 257-305)” as the substance, how does the pKd read?
Answer: The pKd was 5.23.

Question: “MBP-M9NLS(257-305) Y289A (from UniProt P09651 257-305)” was tested. Which pKd did it give?
Answer: Its pKd is 6.88.

Question: With “MBP-M9NLS(257-305) G274A (from UniProt P09651 257-305)” as the substance, how does the pKd read?
Answer: Its pKd is 6.13.

Question: With “MBP-M9NLS(257-305) R284A/P288A/Y289A (from UniProt P09651 257-305)” as the substance, how does the pKd read?
Answer: The pKd was 6.34.

Question: How did the pKd turn out when “MBP-M9NLS(257-305) R284A (from UniProt P09651 257-305)” was run?
Answer: The pKd was 7.04.

Question: “MBP-M9NLS(257-305) P288A/Y289A (from UniProt P09651 257-305)” was tested. Which pKd did it give?
Answer: The pKd was 6.87.
